± gives the uncertainty stated by the source.

This data set in a line: self-splicing fitness, log relative to wild type (ln ratio); higher = more splicing; Tetrahymena group I intron in knt gene, E. coli kanamycin selection, DiMSum; sequences stand for … in CUCUCU…GGAGGGAAAAGUUAUCAGGCAUGCACCUGGUAGCUAGUCUUUAAACCAAUAGAUUGCAUCGGUUUAAAAGGCAAGACCGUCAAAUUGCGGGAAAGGGGUCAACAGCCGUUCAGUACCAAGUCUCAGGGGAAACUUUGAGAUGGCCUUGCAAAGGGUAUGGUAAUAAGCUGACGGACAUGGUCCUAACCACGCAGCCAAGUCCUAAGUCAACAGAUCUUCUGUUGAUAUGGAUGCAGUUCACAGACUAAAUGUCGGUCGGGGAAGAUGUAUUCUUCUCAUAAGAUAUAGUCGGACCUCUCCUUAAUGGGAGCUAGCGGAUGAAGUGAUGCAACACUGGAGCCGCUGGGAACUAAUUUGUAUGCGAAAGUAUAUUGAUUAGUUUUGGAGUACUCGUGGUCG
Put shortly: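 Six replicate transformations of E. coli BL21(DE3) with a pET-22b(+) library were grown overnight at 37°C or 30°C. The library randomised all eight P1ex-region intron nucleotides, the intron lying in the knt kanamycin-resistance gene, and plates were LB agar with or without 25 μg/mL kanamycin plus 100 μg/mL carbenicillin, 50 μM IPTG and 0.2% rhamnose. Pooled colonies were amplicon-sequenced on an Illumina HiSeq 2500, and fitness is the DiMSum error-weighted combination of wild-type-normalised replicate fold changes, kanamycin versus none.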

Take AGGAAGCAAUAUUACGCGUG: the “self-splicing fitness (ln)” value by setting is: (30 °C) -1.49 ± 0.072; (37 °C) -0.951 ± 0.092.
In the case of GACGAGCAAUAUUACGCGCA, the “self-splicing fitness (ln)” value runs as follows: (30 °C) -1.71 ± 0.23; (37 °C) -1.3 ± 0.21.
With UGGCAGCAAUAUUACGCUAC, the “self-splicing fitness (ln)” value (30 °C) was -3.85 ± 0.35.
In the case of CUCGAGCAAUAUUACGGUGG, the “self-splicing fitness (ln)” value was -2.25 ± 0.13 (30 °C) and -1.75 ± 0.17 (37 °C).
AGUCAGCAAUAUUACGCUCC: the “self-splicing fitness (ln)” value is -0.39 ± 0.17 (30 °C) and -0.919 ± 0.16 (37 °C).
The matching figures for AAUAAGCAAUAUUACGCACC: -0.414 ± 0.13 and 0.346 ± 0.13.
As for UGAGAGCAAUAUUACGCCAA, where the note is “37 °C”, the “self-splicing fitness (ln)” value is -1.98 ± 0.37.
Take GUCAAGCAAUAUUACGUAUC: the “self-splicing fitness (ln)” value is -2.71 ± 0.2 (30 °C) and -0.284 ± 0.16 (37 °C).
On to UUGUAGCAAUAUUACGGUAG, for which the “self-splicing fitness (ln)” value runs as follows: (30 °C) -0.909 ± 0.18; (37 °C) -0.181 ± 0.2.
For AGGCAGCAAUAUUACGCAAA, the “self-splicing fitness (ln)” value (30 °C) was -1.43 ± 0.15 and the “self-splicing fitness (ln)” value (37 °C) was -1 ± 0.2.
The like results for UAAUAGCAAUAUUACGCUAA were, in that order, -2.11 ± 0.27 and -1.39 ± 0.19.
Turning to ACAGAGCAAUAUUACGGCAU, the “self-splicing fitness (ln)” value runs as follows: (30 °C) -3.25 ± 0.23; (37 °C) -0.707 ± 0.17.
The matching figures for GCCUAGCAAUAUUACGAGCU: -1.03 ± 0.14 and -1.51 ± 0.14.
The matching figures for UCGUAGCAAUAUUACGUAGU: -3.61 ± 0.25 and -1.99 ± 0.13.
As for GGAAAGCAAUAUUACGAGGU, the “self-splicing fitness (ln)” value (30 °C) is -3.65 ± 0.17 and the “self-splicing fitness (ln)” value (37 °C) was -2.87 ± 0.25.
As to CAGCAGCAAUAUUACGUCUG, the “self-splicing fitness (ln)” value was -3.11 ± 0.14 (30 °C) and -2.85 ± 0.22 (37 °C).
The like results for UGGGAGCAAUAUUACGACUG were, in that order, -0.532 ± 0.39 and -1.31 ± 0.47.
As for UCGAAGCAAUAUUACGCCUG, the “self-splicing fitness (ln)” value is -0.508 ± 0.14 (30 °C) and -0.022 ± 0.21 (37 °C).
The like results for ACAUAGCAAUAUUACGAUGA were, in that order, -0.75 ± 0.072 and -0.575 ± 0.086.
Turning to UGGAAGCAAUAUUACGCGAU, the “self-splicing fitness (ln)” value was -2.02 ± 0.14 (30 °C) and -2.12 ± 0.25 (37 °C).
For the sequence CCAUAGCAAUAUUACGUCUA, the “self-splicing fitness (ln)” value reads like this: (30 °C) -4.41 ± 0.34; (37 °C) -2.47 ± 0.18.
AGAAAGCAAUAUUACGUACG: the “self-splicing fitness (ln)” value was -1.26 ± 0.12 (30 °C) and 0.0255 ± 0.13 (37 °C).
With UCCGAGCAAUAUUACGACUC, the “self-splicing fitness (ln)” value by setting is: (30 °C) -3.61 ± 0.21; (37 °C) -2.87 ± 0.34.
The matching figures for UCAUAGCAAUAUUACGACAG: -1.49 ± 0.13 and -1.26 ± 0.15.
The like results for GAGGAGCAAUAUUACGAAGC were, in that order, -1.73 ± 0.32 and -2.22 ± 0.4.
The matching figures for GGCCAGCAAUAUUACGGCGC: -1.79 ± 0.21 and -1.57 ± 0.34.
Consider CAGAAGCAAUAUUACGGGUC, for which the “self-splicing fitness (ln)” value (30 °C) is -3.4 ± 0.29 and the “self-splicing fitness (ln)” value (37 °C) is -2.55 ± 0.2.
Take CGGGAGCAAUAUUACGACAU: the “self-splicing fitness (ln)” value is, setting by setting: (30 °C) -4.013 ± 0.038; (37 °C) -2.67 ± 0.046.
The matching figures for CACUAGCAAUAUUACGGACA: -1.84 ± 0.16 and -1.99 ± 0.18.
For the sequence AUCCAGCAAUAUUACGAAUG, the “self-splicing fitness (ln)” value is, setting by setting: (30 °C) -1.94 ± 0.12; (37 °C) -1.36 ± 0.11.
AGCCAGCAAUAUUACGACCA: the “self-splicing fitness (ln)” value by setting is: (30 °C) -1.61 ± 0.14; (37 °C) -2.81 ± 0.3.
The like results for GAGCAGCAAUAUUACGGUCU were, in that order, -0.727 ± 0.12 and -0.857 ± 0.14.
Regarding ACUGAGCAAUAUUACGCAGA, the “self-splicing fitness (ln)” value is -2.38 ± 0.14 (30 °C) and -1.25 ± 0.1 (37 °C).
As to AGCUAGCAAUAUUACGCGAU, the “self-splicing fitness (ln)” value was -3 ± 0.31 (30 °C) and -2.14 ± 0.22 (37 °C).
Consider CUCGAGCAAUAUUACGUUGC, for which the “self-splicing fitness (ln)” value is -3.84 ± 0.42 (30 °C) and -3.45 ± 0.37 (37 °C).
The matching figures for UGAAAGCAAUAUUACGGCCC: -0.866 ± 0.26 and 0.448 ± 0.4.
The matching figures for GCGCAGCAAUAUUACGAAAU: -0.982 ± 0.075 and -0.192 ± 0.095.
The matching figures for CGUAAGCAAUAUUACGUACA: -1.59 ± 0.13 and -0.137 ± 0.13.

(Values after the supplement of paper PMC7877785.)
